Assays:
[1] = biological target: NMDA receptor GluN1 subunit (mouse (endogenous in primary cortical neurons)) (UniProt P35438)
[2] = biological target: NMDA receptor GluN1 subunit (mouse (endogenous in primary cortical neurons)) (UniProt P35438); assay: co-IP; extracts of neurons exposed 10 min to 14.4 nM biotinylated Fib-Tau; immunoprecipitation with anti-α3-NKA, anti-GluA2 or anti-GluN1 and protein G magnetic beads, 4°C; Fib-Tau detected on slot blot with streptavidin-HRP; controls with pre-immune goat or rabbit IgG

“Biotin-labelled fibrillar Tau-1N3R (Fib-Tau-1N3R) (from UniProt P10636-4 1-381) (natural protein)” gave a change in the amount (fluorescence intensity) of synaptic GluN1-NMDA after exposure of neurons to Fib-Tau (0.36 nM, 60 min); no change [1] of -3.2% and a fold enrichment in Tau band intensity over pre-immune IgG control [2] of 1.8 fold.

Source: article PMC6356061
